The text below walks through data of patent US20090291081A1 (AbbVie / Abbott, published 2009).

The target of test [1] is T1, human IL-1α (human, UniProt P01583 113-271).
T1 construct: also called IL-1alpha; hIL-1α
T1 sequence (looked up): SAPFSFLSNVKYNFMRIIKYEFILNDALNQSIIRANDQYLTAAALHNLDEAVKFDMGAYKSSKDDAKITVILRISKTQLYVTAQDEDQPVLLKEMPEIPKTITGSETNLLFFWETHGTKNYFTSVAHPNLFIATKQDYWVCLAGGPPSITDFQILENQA
The experiment in a line: Table 62 IC50; RBA presumed.

Test [2] deals with T1, human IL-1α. In words: cell-based or functional assay.

In general, IC50 refers to the midpoint of a concentration-inhibition curve. A high value points to weaker potency in that assay.

B1: ABT1-95-27 (other)
VL: DIQMTQSPSSLSASVGDRVTITCRASQPIVRNLRWYQQKPRKAPKLLIYSSSYLEPGVPSRFSGSGSGTDFTLTISSLQPEDFATYYCAQGYRWPVTFGQGTKVEIKR
notes: VK dAb
As to B1, the IC50 in test [1] was 0.5 nM. In test [2], this molecule yielded an ND50 of 1 nM.

B2: ABT1-95-47 (other)
VL: DIQMTQSPSSLSASVGDRVTITCRASMPIVRNLRWYQQKPGKAPKLLIYSSSYLEPGVPSRFSGSGSGTDFTLTISSLQPEDFATYHCQQGYRWPVTFGQGTKVEIKR
notes: VK dAb
The molecule B2 registered an IC50 in test [1] of 0.1 nM. Besides, the ND50 in test [2] was determined as 0.139 nM.

B3: ABT1-95-115 (other)
VL: DIQMTQSPSSLSASVGDRVTITCRASQPIVRNLRWYQQKPGKAPKLLIYSSSYLEPGVPSRFSGSGSGTDFTLTISSLQPEDFATYHCLQGYRWPVTFGQGTKVEIKR
notes: VK dAb
In test [1], B3 came in with an IC50 of 0.2 nM. Moreover, in test [2], the ND50 turned out to be 0.23 nM.

B4: ABT1-95-28 (other)
VL: DIQMTQSPSSLSASVGDRVTITCRASQPIVRNLRWYQQKPGKAPKLLIYSSSYLEPGVPSRFSGSGSGTDFTLTISSLQPEDFATYYCQQGYGWPVTFGQGTKVEIKR
notes: VK dAb
As to B4, in test [1], the IC50 was > 0.5 nM. The molecule further displayed an ND50 in test [2] of 2 nM.

B5: ABT1-95-132 (other)
VL: DIQMTQSPSSLSASVGDRVTITCRASQPIVRNLRWYQQKPGIAPKLLIYSSSYLEPGVPSRFSGSGSGTDFTLTISSPQPEDFATYHCQQGYRWPVTFGQGTKVEIKR
notes: VK dAb
Consider B5, for which the IC50 in test [1] worked out at 0.1 nM. The ND50 in test [2] was determined as 2 nM.

B6: ABT1-95-85 (other)
VL: DIQMTQSPSSLSASVGDRVTITCRAGQPIVRNLRWYQQKPGKAPKLLIYSGSYLEPGVPSRFSGSGSGTDFTLTISSLQPEDFATYHCLQGYRWPVTFGQGTKVEIKR
notes: VK dAb
The molecule B6 gave an IC50 in test [1] of 0.2 nM. This molecule also had an ND50 in test [2] of 0.713 nM.

B7: ABT1-95-67 (other)
VL: DIQMTQSPSSLSASVGDRVTITCRASQPIVRNLRWYQQKPGKAPKLLIYASSYLEPGVPSRFSGSGSGTDFTLTISSLQPEDFATYHCQQGYRWPVTFGQGTKVEIKR
notes: VK dAb
Regarding B7, inhibition in test [1] was half-maximal at 0.1 nM (IC50). This molecule also registered an ND50 in test [2] of 0.044 nM.

B8: ABT1-95-102 (other)
VL: DIQMTQSPSSLSASVGDRVTITCRASQPIVRNLRWYQQKPGKAPKLLIYSSSYLQPGVPSRFSGSGSGTDFTLTISSLQPEDFATYHCQQGYRWPVTFGQGTKVEIKR
notes: VK dAb
B8 yielded an IC50 in test [1] of 0.1 nM. This molecule also registered an ND50 in test [2] of 0.184 nM.

B9: ABT1-95-80 (other)
VL: DIQMTQSPSSLSASVGDRVTITCRASQPIVRNLRWYQQKPGKAPKLLIYSVSYLEPGVPSRFSGSGSGTDFTLTISSLQPEDFATYHCQQGYRWPVTFGQGTKVEIKR
notes: VK dAb
Regarding B9, half-maximal inhibition in test [1] (IC50) required 0.3 nM. Besides, the ND50 in test [2] came out at 0.008 nM.

B10: ABT1-95-117 (other)
VL: DIQMTQSPSSLSASVGDRVTITCRASQPIVRNLRWYQQKPGKAPKLLIYSSSYLEPGVPSRFSGSGSGTDFTLTISSLQPEDFAMYHCVQGYRWPVTFGQGTKVEIKR
notes: VK dAb
B10: the IC50 in test [1] is 0.2 nM. In addition, the ND50 in test [2] is 0.1 nM.

B11: ABT1-95-92 (other)
VL: DIQMTQSPSSLSASVGDRVTITCRASQPIVRNLRWYQQKPGKAPKLLIYSSSTLEPGVPSRFSGSGSGTDFTLTISSLQPEDFATYHCQQGYRWPVTFGQGTKVEIKR
notes: VK dAb
As for B11, the IC50 in test [1] was < 0.1 nM. The ND50 in test [2] came out at 0.5 nM.

B12: ABT1-95-30 (other)
VL: DIQMTQSPSSLSASVGDRVTITCRASQPIVRNLRWYQQKPGKAPKLLIYSSSYLEPGVPSRFSGSGSGTDFTLTISSLQPEDFATYYCQQSYRWPVTFGQGTKVEIKR
notes: VK dAb
For B12, the IC50 in test [1] is > 1 nM. The ND50 in test [2] was > 10 nM.

B13: ABT1-95-121 (other)
VL: DIQMTQSPSSLSASVGDRVTITCRASQPIVRNLRWYQQKPGKAPKLLIYSSSYLEPGVPSRFSGSGSGTDFTLTISSLQPEDFATYHCQQGYEWPVTFGQGTKVEIKR
notes: VK dAb
Consider B13, for which 0.2 nM corresponded to half-maximal inhibition in test [1] (IC50). In addition, in test [2], the ND50 was 0.1 nM.

B14: ABT1-95-148 (other)
VL: DIQMTQSPSSLSASVGDRVTITCRASQTIVRNLRWYQQKPGKAPKLLIYSSSYLEPGVPSRFSGSGSGTDFTLTISSLQPEDFATYHCQQGYRWPVTFGQGTKVEIKR
notes: VK dAb
B14 gave an IC50 in test [1] of 0.2 nM. In addition, the ND50 in test [2] came out at 0.19 nM.

B15: ABT1-95-149 (other)
VL: DIQMTQSPSSLSASVGDRVTITCRASQAIVRNLRWYQQKPGKAPKLLIYSSSYLEPGVPSRFSGSGSGTDFTLTISSLQPEDFATYHCQQGYRWPVTFGQGTKVEIKR
notes: VK dAb
The molecule B15 yielded an IC50 in test [1] of 0.2 nM. In test [2], the ND50 was 0.064 nM.

B16: ABT1-95-44 (other)
VL: DIQMTQSPSSLSASVGDRVTITCRASSPIVRNLRWYQQKPGKAPKLLIYSSSYLEPGVPSRFSGSGSGTDFTLTISSLQPEDFATYHCQQGYRWPVTFGQGTKVEIKR
notes: VK dAb
On to B16, for which, in test [1], the IC50 is < 0.1 nM. In test [2], this molecule yielded an ND50 of 0.15 nM.

B17: ABT1-95-33 (other)
VL: DIQMTQSPSSLSASVGDRVTITCRASQPIVRNLRWYQQKPGKAPKLLIYSSSYLEPGVPSRFSGSGSGTDFTLTISSLQPEDFATYYCRQGYRWPVTFGQGTKVEIKR
notes: VK dAb
As to B17, the IC50 in test [1] was 0.5 nM. Moreover, the ND50 in test [2] was 1 nM.

B18: ABT1-95-29 (other)
VL: DIQMTQSPSSLSASVGDRVTITCRASQPIVRNLRWYQQKPGKAPKLLIYSSSYLEPGVPSRFSGSGSGTDFTLTISSLQPEDFATYYCQQGYQWPVTFGQGTKVEIKR
notes: VK dAb
B18: the IC50 in test [1] is > 0.5 nM. Moreover, the ND50 in test [2] amounted to 1 nM.

B19: ABT1-95-41 (other)
VL: DIQMTQSPSSLSASVGDRVTITCRASYPIVRNLRWYQQKPGKAPKLLIYSSSYLEPGVPSRFSGSGSGTDFTLTISSLQPEDFATYHCQQGYRWPVTFGQGTKVEIKR
notes: VK dAb
With B19, in test [1], the IC50 was < 0.1 nM. Besides, the ND50 in test [2] worked out at 0.15 nM.

B20: ABT1-95-31 (other)
VL: DIQMTQSPSSLSASVGDRVTITCRASQPIVRNLRWYQQKPGKAPKLLIYSSSYLEPGVPSRFSGSGSGTDFTLTISSLQPEDFATYYCQQGYLWPVTFGQGTKVEIKR
notes: VK dAb
Take B20: the half-inhibitory concentration (IC50) in test [1] was > 0.5 nM. Also, the ND50 in test [2] was found to be 3.3 nM.

B21: ABT1-95-64 (other)
VL: DIQMTQSPSSLSASVGDRVTITCRASQPIVRNLRWYQQKPGKAPKLLVHSSSYLEPGVPSRFSGSGSGTDFTLTISSLQPEDFATYHCQQGYRWPVTFGQGTKVEVKR
notes: VK dAb
Take B21: the midpoint of inhibition in test [1], the IC50, lay at 3 nM. This molecule registered an ND50 in test [2] of 0.438 nM.

B22: ABT1-95-32 (other)
VL: DIQMTQSPSSLSASVGDRVTITCRASQPIVRNLRWYQQKPGKAPKLLIYSSSYLEPGVPSRFSGSGSGTDFTLTISSLQPEDFATYYCQQGYSWPVTFGQGTKVEIKR
notes: VK dAb
Take B22: the IC50 in test [1] is > 0.5 nM. Moreover, the ND50 in test [2] came out at 1.2 nM.

B23: ABT1-95-118 (other)
VL: DIQMTQSPSSLSASVGDRVTITCRASQPIVRNLRWYQQKPGKAPKLLIYSSSYLEPGVPSRFSGSGSGTDFTLTISSLQPEDFATYHCSQGYRWPVTFGQGTKVEIKR
notes: VK dAb
With B23, it took 0.2 nM to reach half-maximal inhibition in test [1] (IC50). The same molecule yielded an ND50 in test [2] of 0.122 nM.

B24: ABT1-95-139 (other)
VL: DIQMTQSPSSLSASVGDRVTITCRASQQIVRNLRWYQQKPGKAPKLLIYSSSYLEPGVPSRFSGSGSGTDFTLTISSLQPEDFATYHCQQGYRWPVTFGQGTKVEIKR
notes: VK dAb
Take B24: in test [1], 0.2 nM corresponded to half-maximal inhibition (IC50). The ND50 in test [2] amounted to 0.1 nM.

B25: ABT1-95-131 (other)
VL: DIQMTQSPSSLSASVGDRVTITCRASQPTVRNLRWYQQKPGKAPKLLIYSSSYLEPGVPSRFSGSGSGTDFTLTISSLQPEDFATYHCQQGYRWPVTFGQGTKVEIKR
notes: VK dAb
B25 gave an IC50 in test [1] of 0.1 nM. The same molecule yielded an ND50 in test [2] of 0.085 nM.

B26: ABT1-95-116 (other)
VL: DIQMTQSPSSLSASVGDRVTITCRASQPIVRNLRWYQQKPGKAPKLLIYSSSYLEPGVPSRFSGSGSGTDFTLTISSLQPEDFATYHCVQGYRWPVTFGQGTKVEIKR
notes: VK dAb
B26: in test [1], inhibition was half-maximal at 0.2 nM (IC50). The molecule further came in with an ND50 in test [2] of 0.168 nM.

B27: ABT1-95-122 (other)
VL: DIQMTQSPSSLSASVGDRVTITCRASQPIVRNLRWYQQKPGKAPKLLIYSSSYLEPGVPSRFSGSGSGTDFILTISSLQPEDFATYHCQQGYRWPVTFGQGTKVEIKR
notes: VK dAb
Molecule B27 came in with an IC50 in test [1] of 0.1 nM. This molecule registered an ND50 in test [2] of 0.116 nM.

B28: ABT1-95-107 (other)
VL: DIQMTQSPSSLSASVGDRVTITCRASQPIVRNLRWYQQKPGKAPKLLIYSSSYLEHGVPSRFSGSGSGTDFTLTISSLQPEDFATYHCQQGYRWPVTFGQGTKVEIKR
notes: VK dAb
As to B28, the IC50 in test [1] is 0.1 nM. For the same molecule, in test [2], the ND50 worked out at 0.5 nM.

B29: ABT1-95-160 (other)
VL: DIQMTQSPSSLSASVGDRVTITCRASQPIVRNLRWYQQKPGKAPKLLIYSSSYLEPGVPSRFSGSGSGTDFTLTISSLQPEDFATYHCQQGYVWPVTFGQGTKVEIKR
notes: VK dAb
B29 showed an IC50 in test [1] of 0.1 nM. The same molecule had an ND50 in test [2] of 0.238 nM.

B30: ABT1-95-34 (other)
VL: DIQMTQSPSSLSASVGDRVTITCRASAPIVRNLRWYQQKPGKAPKLLIYSSSYLEPGVPSRFSGSGSGTDFTLTISSLQPEDFATYHCQQGYRWPVTFGQGTKVEIKR
notes: VK dAb
B30 returned an IC50 in test [1] of 0.1 nM. Further, the ND50 in test [2] came to 1 nM.
